B1: Protein phosphatase 2C 77 (Arabidopsis thaliana (Mouse-ear cress)), O04719 (parent)
chain: MDEVSPAVAVPFRPFTDPHAGLRGYCNGESRVTLPESSCSGDGAMKDSSFEINTRQDSLTSSSSAMAGVDISAGDEINGSDEFDPRSMNQSEKKVLSRTESRSLFEFKCVPLYGVTSICGRRPEMEDSVSTIPRFLQVSSSSLLDGRVTNGFNPHLSAHFFGVYDGHGGSQVANYCRERMHLALTEEIVKEKPEFCDGDTWQEKWKKALFNSFMRVDSEIETVAHAPETVGSTSVVAVVFPTHIFVANCGDSRAVLCRGKTPLALSVDHKPDRDDEAARIEAAGGKVIRWNGARVFGVLAMSRSIGDRYLKPSVIPDPEVTSVRRVKEDDCLILASDGLWDVMTNEEVCDLARKRILLWHKKNAMAGEALLPAEKRGEGKDPAAMSAAEYLSKMALQKGSKDNISVVVVDLKGIRKFKSKSLN
partner: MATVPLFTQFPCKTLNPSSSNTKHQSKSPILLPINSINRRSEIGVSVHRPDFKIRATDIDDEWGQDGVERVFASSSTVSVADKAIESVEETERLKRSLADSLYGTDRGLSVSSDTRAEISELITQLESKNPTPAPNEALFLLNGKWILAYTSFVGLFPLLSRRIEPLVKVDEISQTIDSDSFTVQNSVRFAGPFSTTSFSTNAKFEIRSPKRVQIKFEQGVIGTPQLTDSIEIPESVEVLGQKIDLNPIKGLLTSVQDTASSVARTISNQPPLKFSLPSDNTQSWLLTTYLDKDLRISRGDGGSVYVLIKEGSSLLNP

Variants of: B1
Conditions: with pap1_arath PAP1, O81439

effect of a mutation on the interaction	Variant
disrupting interaction strength	MDEVSPAVAVPFRPFTDPHAGLRGYCNGESRVTLPESSCSGDGAMKDSSFEINTRQDSLTSSSSAMAGVDISAGDEINGSDEFDPRSMNQSEKKVLSRTESRSLFEFKCVPLYGVTSICGRRPEMEDSVSTIPRFLQVSSSSLLDGRVTNGFNPHLSAHFFGVYDGHDGSQVANYCRERMHLALTEEIVKEKPEFCDGDTWQEKWKKALFNSFMRVDSEIETVAHAPETVGSTSVVAVVFPTHIFVANCGDSRAVLCRGKTPLALSVDHKPDRDDEAARIEAAGGKVIRWNGARVFGVLAMSRSIGDRYLKPSVIPDPEVTSVRRVKEDDCLILASDGLWDVMTNEEVCDLARKRILLWHKKNAMAGEALLPAEKRGEGKDPAAMSAAEYLSKMALQKGSKDNISVVVVDLKGIRKFKSKSLN [G168D]

Variants of: B1
Conditions: with pap1_arath PAP1, O81439
Remark: another data set of the same source

effect of a mutation on the interaction	Variant
disrupting interaction	MDEVSPAVAVPFRPFTDPHAGLRGYCNGESRVTLPESSCSGDGAMKDSSFEINTRQDSLTSSSSAMAGVDISAGDEINGSDEFDPRSMNQSEKKVLSRTESRSLFEFKCVPLYGVTSICGRRPEMEDSVSTIPRFLQVSSSSLLDGRVTNGFNPHLSAHFFGVYDGHDGSQVANYCRERMHLALTEEIVKEKPEFCDGDTWQEKWKKALFNSFMRVDSEIETVAHAPETVGSTSVVAVVFPTHIFVANCGDSRAVLCRGKTPLALSVDHKPDRDDEAARIEAAGGKVIRWNGARVFGVLAMSRSIGDRYLKPSVIPDPEVTSVRRVKEDDCLILASDGLWDVMTNEEVCDLARKRILLWHKKNAMAGEALLPAEKRGEGKDPAAMSAAEYLSKMALQKGSKDNISVVVVDLKGIRKFKSKSLN [G168D]
